In patent US20220411492A1 (QILU PHARMACEUTICAL, published 2022):
Residue numbers refer to the chain shown, from its start.

B1: ch-48H1 (antibody, V domains shown)
VH: QVQLQQPGAELVKPGTSVKLSCKASGYIFTNYWTHWMKQRPGQGLEWIGMIHPNSGSSNYNEKFKSKATLTVDRSSSTVYMQLRRLTSEDSAVYYCTRIHYGNSMDYWGQGTSVTVSS
VL: DIVMTQSPSSLTVTAGEKVTMSCKSSQSLFNSGNQKNYLTWYQQKPGQPPKLLIYWASTWESGVPDRFTGSGSGTDFTLTISSVQAEDLAVYYCQNAYSYPFTFGSGTKLEIK
notes: also called chimeric antibody of clone 48H1
B2: ch-37G8 (antibody, V domains shown)
VH: EVQLQQSGPVLVKPGASVKMSCKASGYTFSDYHMNWVKQSHGKSLEWVGLINPYNGGIRFNQKFKGKATLTVDKSSSTAYMELNSLTSEDSAVYYCATIYYGNSFAYWGQGTLVTVSA
VL: B1 VL with M21L, S22T, S26G, F30L, W60R, S83G, A97D, S99F, F102Y, S106G
notes: also called chimeric antibody of clone 37G8
B3: ch-229C9 (antibody, V domains shown)
VH: DVQLQESGPDLVKPSQSLSLICTVTGYSITSGYSWHWIRQFPGNKLEWMGYIHYSGGTNYNPSLKSRISFTRDTSKNQFFLQLNSVTTEDTATYYCARLERGNSFAYWGQGTLVTVSA
VL: B1 VL with S26T, F30L, W60R, V84L, A97D, S99F
notes: also called chimeric antibody of clone 229C9
B4: ch-252F11 (antibody, V domains shown)
VH: EIQLVESGGGLVRPGGSLKLSCAASGFSFKNYVMSWVRQSPERRLEWVAEIRTGGDYTYYVDTVTGRFTISRDNAKNTLYLEMTSLRSEDTATYYCARVGYGNSLDYWGQGTTLTVSS
VL: B1 VL with F30L, W60R, Y93S, A97N, S99F, F102L, S106A, K109E, I112L
notes: also called chimeric antibody of clone 252F11
B5: ch-239E9 (antibody, V domains shown)
VH: QVQLQQSGPELVRPGVSVKISCKGSSYTFTDYTMHWVKQSHAKSLEWIGFIGVYYGNTNYNQKFKGKATMTVDKSSSTAYMELARLTSEDSAVYYCARIGRGNAMDYWGQGTSVTVSS
VL: B1 VL with F30L, W60R, Y93N
notes: also called chimeric antibody of clone 239E9
B6: ch-39C8 (antibody, V domains shown)
VH: QVQLQQSGAGLVKPGASVKISCKASGYAFSSYWMIWVKQRPGKGLEWIGQIYPGDGDTNYNGKFKGKATLTADKSSSTAFMQLSSLTSEDSAVYFCTRIYYGNAFAYWGQGTLVTVSA
VL: B1 VL with F30L, W60R, A97D
notes: also called chimeric antibody of clone 39C8
B7: ch-40G7 (antibody, V domains shown)
VH: QVQLQQPGTELVKPGASVKLSCKASGYTFTNYWMHWVKQRPGHGLEWIGMIHPNSYSTNYNEKFRSKATLTVDKSSSTAYMQLSSLTSEDSAVYYCTRIYYGNAMDYWGQGTSVTVSS
VL: B1 VL with K18R, Q43H, S58F, W60R, S82R, A97D
notes: also called chimeric antibody of clone 40G7
B8: ch-32G8 (antibody, V domains shown)
VH: B2 VH with Q3H, S30T, V48I, L50V, F60Y
VL: B1 VL with F30L, W60R, A97N, S99I, S106G, K113R
notes: also called chimeric antibody of clone 32G8
B9: ch-76D11 (antibody, V domains shown)
VH: QVQLQQSGAELMKPGASVKLSCKASGYTFTGYWIEWIKQRPGHGLEWIGEILPGSGSIKYNEKFKDKATFTADTSSNTAYMQLSSLTTEDSAIYYCARKGLRGNSFDYWGQGTTLTVSS
VL: B1 VL with F30L, L52R, W60R, A97D, S99Y
notes: also called chimeric antibody of clone 76D11
B10: ch-43F5 (antibody, V domains shown)
VH: B1 VH with I28T, N31S, M37V, R74K, V79A, S104A
VL: B1 VL with S22T, F30L, W60R, V91I, A97D, Y100F
notes: also called chimeric antibody of clone 43F5
B11: ch-42D2 (antibody, V domains shown)
VH: B2 VH with S30T, H33Q, V48I, L50F, F60Y, Y101F, Y107N
VL: B1 VL with S25P, F30L, K51R, W60R, A97D, S99I, F102Y, S106G, K109N
notes: also called chimeric antibody of clone 42D2
B12: ch-126A11 (antibody, V domains shown)
VH: QVQLKESGPGLVAPSQSLSITCTVSEFSLTTYGVSWVRQPPGKGLEWLGVIWGDGSTNYHSALISRLSISKDTSKSQVFLKLNSLQTDDTATYYCAKPGLRNAMDYWGQGTSVTVSS
VL: DIVMTQSPSSLSVSAGEKVTMSCKSSQSLLNSGNQKNYLAWYQQKPGQPPKLLIYGASTRESGVPDRFTGSGSGTDFTLTISSVQAEDLAVYYCQNDLIYPLTFGAGTKLELK
notes: also called chimeric antibody of clone 126A11

biological target: murine CLDN18.2 (mCLDN18.2) (murine) (UniProt P56857); assay: FACS, HEK293-mCLDN18.2 cells

B1 and B2 are within 1.5-fold of each other in EC50: 1.76 nM for the first, 1.71 nM for the second.

B3 and B4 are within 1.5-fold of each other in EC50: 1.19 nM for the first, 0.948 nM for the second.

B5 and B6 are within 1.5-fold of each other in EC50: 1.24 nM for the first, 1.63 nM for the second.

B7 and B8 are within 1.5-fold of each other in EC50: 1.11 nM for the first, 0.84 nM for the second.

First: B9
Second: B10
The EC50 of the first is 1.6-fold lower: 0.702 nM for the first, 1.13 nM for the second. The first is the more potent here.

B11 and B12 are within 1.5-fold of each other in EC50: 0.764 nM for the first, 0.573 nM for the second.

Going from B1 to B2, the Mean maximum fluorescence intensity (Top MFI) falls from 14800 MFI to 8930 MFI.

Going from B3 to B4, the Mean maximum fluorescence intensity (Top MFI) falls from 12700 MFI to 8980 MFI.

Going from B5 to B6, the Mean maximum fluorescence intensity (Top MFI) falls from 12700 MFI to 10600 MFI.

Going from B7 to B8, the Mean maximum fluorescence intensity (Top MFI) falls from 10000 MFI to 6870 MFI.

Compared with B9, B10 is lower in Mean maximum fluorescence intensity (Top MFI): 6340 MFI for the first, 6090 MFI for the second.

Going from B11 to B12, the Mean maximum fluorescence intensity (Top MFI) rises from 7400 MFI to 7640 MFI.

biological target: T1, human Claudin 18.2 (hCLDN18.2) (human, UniProt P56856-2 1-261); assay: FACS, PDX-hCLDN18.2 gastric cancer tumor tissue-derived cells
T1 construct: whole, on cells; also called CLDN18A2; claudin 18 splice variant 2
From the text: (§1) FACS was used to detect the binding of anti-CLDN18.2 chimeric antibodies to HEK293 cells stably transfected expressing hCLDN18.2 (HEK293-hCLDN18.2) and gastric cancer tumor tissue-derived cells naturally expressing hCLDN18.2 (PDX-hCLDN18.2).

B1 and B2 are within 1.5-fold of each other in EC50: 5.59 nM for the first, 7 nM for the second.

B3 and B4 are within 1.5-fold of each other in EC50: 10.7 nM for the first, 15.8 nM for the second.

First: B5
Second: B6
The EC50 of the first is 4.4-fold lower: 4.55 nM for the first, 20.1 nM for the second.

B7 and B8 are within 1.5-fold of each other in EC50: 7.69 nM for the first, 5.39 nM for the second.

Compared with B9, B10 is 2.3-fold lower in EC50: 12.3 nM for the first, 5.35 nM for the second. The second is the more potent here.

Going from B11 to B12, the EC50 rises from 7.42 nM to 15 nM (2-fold).

First: B1
Second: B2
The “Mean maximum fluorescence intensity (Top MFI)” value of the first is lower: 13600 MFI for the first, 14400 MFI for the second.

Going from B3 to B4, the “Mean maximum fluorescence intensity (Top MFI)” value rises from 15700 MFI to 16500 MFI.

Going from B5 to B6, the “Mean maximum fluorescence intensity (Top MFI)” value rises from 14600 MFI to 17500 MFI.

First: B7
Second: B8
The “Mean maximum fluorescence intensity (Top MFI)” value of the first is lower: 10100 MFI for the first, 14800 MFI for the second.

First: B9
Second: B10
The “Mean maximum fluorescence intensity (Top MFI)” value of the first is higher: 16800 MFI for the first, 7620 MFI for the second.

Going from B11 to B12, the “Mean maximum fluorescence intensity (Top MFI)” value rises from 15700 MFI to 17100 MFI.

biological target: T1, human Claudin 18.2 (hCLDN18.2); assay: FACS, HEK293-hCLDN18.2 cells
From the text: as §1

Going from B1 to B2, the EC50 rises from 2.92 nM to 5.05 nM (1.7-fold). The first is the more potent here.

B3 and B4 are within 1.5-fold of each other in EC50: 2.46 nM for the first, 2.2 nM for the second.

B5 and B6 are within 1.5-fold of each other in EC50: 2.31 nM for the first, 2.7 nM for the second.

B7 and B8 are within 1.5-fold of each other in EC50: 2.31 nM for the first, 2.66 nM for the second.

First: B9
Second: B10
The EC50 of the first is 1.6-fold higher: 2.46 nM for the first, 1.51 nM for the second. The second is the more potent here.

B11 and B12 are within 1.5-fold of each other in EC50: 2.42 nM for the first, 2.12 nM for the second.

Going from B1 to B2, the “Mean maximum fluorescence intensity (Top MFI)” value rises from 9480 MFI to 10400 MFI.

Going from B3 to B4, the “Mean maximum fluorescence intensity (Top MFI)” value falls from 9870 MFI to 8380 MFI.

First: B5
Second: B6
The “Mean maximum fluorescence intensity (Top MFI)” value of the first is higher: 9270 MFI for the first, 7820 MFI for the second.

Compared with B7, B8 is higher in “Mean maximum fluorescence intensity (Top MFI)” value: 7470 MFI for the first, 8640 MFI for the second.

Compared with B9, B10 is lower in “Mean maximum fluorescence intensity (Top MFI)” value: 8720 MFI for the first, 5590 MFI for the second.

First: B11
Second: B12
The “Mean maximum fluorescence intensity (Top MFI)” value of the first is higher: 10400 MFI for the first, 9970 MFI for the second.

biological target: T1, human Claudin 18.2 (hCLDN18.2); assay: cell-based or functional assay

Going from B1 to B2, the “ADCC EC50” value rises from 0.011 mg/L to 0.022 mg/L (2-fold).

B3 and B4 are within 1.5-fold of each other in “ADCC EC50” value: 0.023 mg/L for the first, 0.022 mg/L for the second.

B5 and B6 are within 1.5-fold of each other in “ADCC EC50” value: 0.021 mg/L for the first, 0.022 mg/L for the second.

B7 and B8 are within 1.5-fold of each other in “ADCC EC50” value: 0.018 mg/L for the first, 0.019 mg/L for the second.

Going from B9 to B10, the “ADCC EC50” value rises from 0.021 mg/L to 0.064 mg/L (3-fold).

Going from B11 to B12, the “ADCC EC50” value falls from 0.02 mg/L to 0.01 mg/L (2-fold).

First: B1
Second: B2
The “ADCC Maximum lysis (%)” value of the first is higher: 44.7% for the first, 31.7% for the second.

First: B3
Second: B4
The “ADCC Maximum lysis (%)” value of the first is lower: 29.1% for the first, 31.1% for the second.

Going from B5 to B6, the “ADCC Maximum lysis (%)” value falls from 36.7% to 34.5%.

First: B7
Second: B8
The “ADCC Maximum lysis (%)” value of the first is lower: 32.7% for the first, 46.8% for the second.

Compared with B9, B10 is higher in “ADCC Maximum lysis (%)” value: 45.6% for the first, 48.5% for the second.

Compared with B11, B12 is lower in “ADCC Maximum lysis (%)” value: 39.1% for the first, 36.6% for the second.

biological target: T1, human Claudin 18.2 (hCLDN18.2); assay: cell-based or functional assay; remark: another data set of the same source

B1 and B2 are within 1.5-fold of each other in “CDC EC50” value: 0.17 mg/L for the first, 0.16 mg/L for the second.

B3 and B4 are within 1.5-fold of each other in “CDC EC50” value: 0.165 mg/L for the first, 0.179 mg/L for the second.

B5 and B6 are within 1.5-fold of each other in “CDC EC50” value: 0.139 mg/L for the first, 0.177 mg/L for the second.

First: B7
Second: B8
The “CDC EC50” value of the first is 3.5-fold higher: 0.38 mg/L for the first, 0.108 mg/L for the second.

First: B9
Second: B10
The “CDC EC50” value of the first is 1.9-fold lower: 0.108 mg/L for the first, 0.206 mg/L for the second.

First: B11
Second: B12
The “CDC EC50” value of the first is 2-fold higher: 0.13 mg/L for the first, 0.065 mg/L for the second.

First: B1
Second: B2
The “CDC Maximum lysis (%)” value of the first is higher: 94.3% for the first, 92.9% for the second.

First: B3
Second: B4
The “CDC Maximum lysis (%)” value of the first is higher: 96.1% for the first, 95.4% for the second.

B5 and B6 are the same in “CDC Maximum lysis (%)” value: 94.8% for the first, 94.8% for the second.

Going from B7 to B8, the “CDC Maximum lysis (%)” value rises from 89.1% to 93.8%.

Compared with B9, B10 is lower in “CDC Maximum lysis (%)” value: 95.4% for the first, 89.8% for the second.

Going from B11 to B12, the “CDC Maximum lysis (%)” value rises from 94.5% to 95%.
